{"source": "paper PMC11645210", "key": {"[1]": {"molecular_target": "SARS-CoV-2 BA.2.86 Hexapro S ectodomain (SARS-CoV-2) (UniProt P0DTC2)", "assay": "cryo-EM structure"}, "[2]": {"molecular_target": "SARS-CoV-2 XBB.1.5 + L455S RBD (SARS-CoV-2) (UniProt P0DTC2)", "assay": "SPR"}, "[3]": {"molecular_target": "SARS-CoV-2 XBB.1.5 + L455F RBD (SARS-CoV-2) (UniProt P0DTC2)", "assay": "SPR"}}, "data": [{"substance": "SARS-CoV-2 BA.2.86 Hexapro S ectodomain (from UniProt P0DTC2 14-1204) (domain or fragment)", "values": [{"measurement": "stoichiometry N", "setting": "[1]", "value": 3}]}, {"substance": "VIR-7229 Fab fragment", "values": [{"measurement": "Kd", "setting": "[2]", "value": 0.199, "unit": "nM"}, {"measurement": "koff", "setting": "[2]", "value": 0.000106, "unit": "s⁻¹"}, {"measurement": "kon", "setting": "[2]", "value": 543000, "unit": "M⁻¹ s⁻¹"}, {"measurement": "Kd", "setting": "[3]", "value": 0.193, "unit": "nM"}, {"measurement": "koff", "setting": "[3]", "value": 0.000113, "unit": "s⁻¹"}, {"measurement": "kon", "setting": "[3]", "value": 604000, "unit": "M⁻¹ s⁻¹"}]}]}
